Test results from patent publication US20220389077A1, “ALLOGENEIC CELL COMPOSITIONS AND METHODS OF USE” (Poseida Therapeutics, Inc., priority 2018, published 2022).
Changes are numbered by the printed parent chain. Names may count otherwise. “Also recorded” adds a separate entry of the source.

T1: human CD58 (Homo sapiens, UniProt P19256)
T1 construct: expressed in transfected cells; host or cells: K562 (electroporated) or Rat2 (lipofected) cells
T1 sequence (P19256 29-250): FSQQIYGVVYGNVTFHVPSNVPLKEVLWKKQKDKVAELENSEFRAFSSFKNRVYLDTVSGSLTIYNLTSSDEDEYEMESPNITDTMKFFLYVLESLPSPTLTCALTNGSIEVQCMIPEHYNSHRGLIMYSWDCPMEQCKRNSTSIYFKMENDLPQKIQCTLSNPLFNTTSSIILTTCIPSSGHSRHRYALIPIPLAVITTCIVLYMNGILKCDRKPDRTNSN

B1: K67R/Y110D: CSR CD2z mutant within the extracellular domain of CD2 (protein)
chain: KEITNALETWGALGQDINLDIPSFQMSDDIDDIKWEKTSDKKRIAQFRKEKETFKEKDTYKLFKNGTLKIKHLKTDDQDIYKVSIDDTKGKNVLEKIFDLKIQERVSKPKISWTCINTTLTCEVMNGTDPELNLYQDGKHLKLSQRVITHKWTTSLSAKFKCTAGNKVSKESSVEPVSCPEKGLDIYLIIGICGGGSLLMVFVALLVFYITKRKKQRSRRNDEELETRAHRVATEERGRKPHQIPASTPQNPATSQHPPPPPGHRSQAPSHRPPPPGHRVQHQPQKRPPAPSGTQVHQQKGPPLPRPRVQPKPPHGAAENSLSPSSNRVKFSRSADAPAYKQGQNQLYNELNLGRREEYDVLDKRRGRDPEMGGKPRRKNPQEGLYNELQKDKMAEAYSEIGMKGERRRGKGHDGLYQGLSTATKDTYDALHMQALPPR
B2: K67R/Q70K/Y110D/D111H: CSR CD2z mutant within the extracellular domain of CD2 (protein)
chain: B1 chain with Q46K, D87H
B3: Delta K106-120: CSR CD2z mutant of the panel (protein)
chain: KEITNALETWGALGQDINLDIPSFQMSDDIDDIKWEKTSDKKKIAQFRKEKETFKEKDTYKLFKNGTLKIKHLKTDDQDIYIFDLKIQERVSKPKISWTCINTTLTCEVMNGTDPELNLYQDGKHLKLSQRVITHKWTTSLSAKFKCTAGNKVSKESSVEPVSCPEKGLDIYLIIGICGGGSLLMVFVALLVFYITKRKKQRSRRNDEELETRAHRVATEERGRKPHQIPASTPQNPATSQHPPPPPGHRSQAPSHRPPPPGHRVQHQPQKRPPAPSGTQVHQQKGPPLPRPRVQPKPPHGAAENSLSPSSNRVKFSRSADAPAYKQGQNQLYNELNLGRREEYDVLDKRRGRDPEMGGKPRRKNPQEGLYNELQKDKMAEAYSEIGMKGERRRGKGHDGLYQGLSTATKDTYDALHMQALPPR
B4: D111H: mutant CSR CD2z with D111H mutation within the CD2 extracellular domain (SEQ ID NO: 17118) (protein)
chain: MSFPCKFVASFLLIFNVSSKGAVSKEITNALETWGALGQDINLDIPSFQMSDDIDDIKWEKTSDKKKIAQFRKEKETFKEKDTYKLFKNGTLKIKHLKTDDQDIYKVSIYHTKGKNVLEKIFDLKIQERVSKPKISWTCINTTLTCEVMNGTDPELNLYQDGKHLKLSQRVITHKWTTSLSAKFKCTAGNKVSKESSVEPVSCPEKGLDIYLIIGICGGGSLLMVFVALLVFYITKRKKQRSRRNDEELETRAHRVATEERGRKPHQIPASTPQNPATSQHPPPPPGHRSQAPSHRPPPPGHRVQHQPQKRPPAPSGTQVHQQKGPPLPRPRVQPKPPHGAAENSLSPSSNRVKFSRSADAPAYKQGQNQLYNELNLGRREEYDVLDKRRGRDPEMGGKPRRKNPQEGLYNELQKDKMAEAYSEIGMKGERRRGKGHDGLYQGLSTATKDTYDALHMQALPPR

Experiments:
[1] = system: anti-CD2 activator reagent, anti-CD2 monoclonal antibody (clone TS1/8), anti-CD2 polyclonal antibody reagent; test: CSR CD2z mutant surface expression and staining with anti-CD2 antibody reagents in K562 cells; format: binding; settings: 9 μg mRNA, next day
Protocol: FIG. 23A is a bar graph showing CSR CD2z mutant staining data. A panel of CSR CD2z mutants was designed, constructed, and tested for surface expression and binding to several anti-CD2 antibody reagents. To do so, each mutant was synthesized, subcloned into an in-house mRNA production vector, and then high-quality mRNA was produced for each. K562 cells were electroporated with 9 μg of mRNA, and surface-expression of each molecule was analyzed by flow cytometry the next day and data are shown as bar graphs. Each molecule was stained with anti-CD2 activator reagent, anti-CD2 monoclonal antibody (clone TS1/8), or anti-CD2 polyclonal antibody reagent (goat anti-human CD2).
(§1) FIG. 23C is a summary of staining and degranulation data. Data from surface-expression and binding studies, as well as those from degranulation experiments for each CSR CD2z mutant is summarized in the table.

[2] = target: T1, human CD58; test: T cell degranulation (CD107a) against CD58-positive cell targets; format: cell-based; settings: 4-6 hours coculture, K562 or Rat2 cells with mRNA encoding human CD58
Protocol: FIG. 23B is a series of bar graphs showing CSR CD2z mutant degranulation data. The panel of CSR CD2z mutants was tested for the capability of mediating degranulation against CD58-positive cell targets. T cell degranulation is a surrogate of T cell killing that can be measured by FACS staining for intracellular CD107a expression following coculture with target cell lines expressing target antigen. Specifically, pan T cells from normal blood donors were stimulated with anti-CD3/anti-CD28 beads in standard T cell culture media, then rested. These cells were then electroporated (BTX ECM 830 electroporator @ 500V for 700 μs) with 9 μg of mRNA expressing CSR CD2z mutants and cultured overnight. The next day, the cells were cocultured for 4-6 hours in the presence of various target cell lines. Positive target cell lines included K562 cells or Rat2 cells that were electroporated or lipofected, respectively, with mRNA encoding human CD58, while negative controls were either Rat2 cells that were not electroporated or CSR CD2z mutant expressing T cells alone.
as §1
FIG. 23D is a series of flow cytometry plots showing the expression of CD48, CD58 or CD59 on K562 and Rat2 cells. To confirm possible ligands for the CSR WT CD2z molecule, a panel of known and suspected ligands including human CD48, CD58, and CD59 were tested. Degranulation of engineered T cells was evaluated against the cell lines K562 and Rat2 that were made to overexpress the target ligands and confirmed for expression by FACS staining. Red histograms are unstained cells and blue histograms are cells that were electroporated/lipofected with mRNA and then stained for expression of the respective marker by FACS.
FIG. 23E is a bar graph showing that CSR CD2z recognizes human CD58, but not CD48 or CD59. To confirm possible ligands for the CSR WT CD2z molecule, a panel of known and suspected ligands including human CD48, CD58, and CD59 were tested. Degranulation of engineered T cells was evaluated against the cell lines K562 and Rat2 that were made to overexpress the target ligands and confirmed for expression by FACS staining. Cells were electroporated/lipofected with mRNA and then stained for expression of the respective marker by FACS. As a control, a BCMA CAR was included as well as a K562 cell line overexpressing BCMA. In addition, T cells transfected with GFP were also included as a control. T cell degranulation is a surrogate of T cell killing that can be measured by FACS staining for intracellular CD107a expression following coculture with target cell lines expressing target antigen. Pan T cells from normal blood donors were stimulated with anti-CD3/anti-CD28 beads in standard T cell culture media, then rested. These T cells were then electroporated with mRNA expressing CSR WT CD2z, BCMA CAR, or GFP and cultured overnight. The next day, the cells were cocultured for 4-6 hours in the presence of the various target cell lines that were electroporate/lipofected with mRNA encoding human CD48, CD58 or CD59, while negative controls were either K562 or Rat2 cells that were not electroporated/lipofected, or each of the electroporated T cells alone.

[3] = system: Allo CAR-T cells; test: Expansion of Allo CAR-T cells with WT or mutant (D111H) CSR CD2z; format: cell-based, human; settings: up to 15-day culture; CSR stable or transient
Text: FIG. 24A is a bar graph showing that the delivery of CSR CD2z-D111H mutant enhances the expansion of Allo CAR-T cells. Pan T cells isolated from healthy donor blood were genetically modified using the piggyBac® DNA modification system in combination with the Cas-CLOVER™ gene-editing system (CC) for the production of allogeneic (Allo) CAR-T cells, or without CC gene-editing, as a control, for the production of autologous (Auto) CAR-T without a CSR (No CSR); auto CAR-T cells were produced by nucleofection of an mRNA encoding the super piggyBac™ transposase enzyme (SPB) and a transposon encoding a CAR, selection gene and a safety switch. […] Following EP, all cells were subsequently stimulated with a cocktail of agonist mAbs anti-CD2, anti-CD3 and anti-CD28, and were later selected for genetic modification over the course of up to a 15-day culture period using the selection gene. At the end of the initial culture period, all T cells expressed the CAR, indicating successful selection for genetically-modified cells (data not shown), and then all non-edited TCR-positive cells were depleted via negative selection to yield a population of Allo CAR-T cells that were >99% TCR-negative (data not shown).

[4] = system: TCRb and b2M; test: Gene editing (knockout of TCR and MHCI) of Allo CAR-T cells with CSR; format: cell-based, human; settings: up to 14-day culture; CSR stable or transient
Text: Pan T cells isolated from healthy donor blood were genetically modified using the piggyBac® DNA modification system in combination with the Cas-CLOVER™ gene-editing system (CC) to produce allogeneic (Allo) CAR-T cells. […] Following EP, all cells were subsequently stimulated with a cocktail of agonist mAbs anti-CD2, anti-CD3 and anti-CD28, and were later selected for genetic modification over the course of up to a 14-day culture period using the selection gene. At the end of the initial culture period, all T cells expressed the CAR, indicating successful selection for genetically-modified cells (data not shown). All samples were performed in duplicate, and data is shown in bar graph where error bars represent standard deviation.

Row | Molecule | surface expression and binding of anti-CD2 staining reagents [1] | degranulation (CD107a) against CD58 [2] | degranulation (CD107a) against CD58 ([2]; listed as K67R/Y1101D) | peak expansion of Allo CAR-T cells compared to Allo CAR-T cells produced without a CSR [3] | degree of gene editing compared to Allo CAR-T cells produced without a CSR [4]
1 | B1 | expressed on the surface and/or retain binding to the anti-CD2 activator reagent | Little reactivity | do not mediate anti-CD58 degranulation activity | – | –
2 | B2 | – | Little reactivity | – | – | –
3 | B3 | – | Little reactivity | – | – | –
4 | B4 | strongly bound by all staining reagents | Little reactivity; also recorded: completely abrogating anti-CD58 degranulation activity | – | a greater degree of expansion | a similar or greater degree of gene editing
